Laboratory results taken from US20210220450A1, “TREATMENT OF AN IOP CONDITION” (The Research Foundation for The State University of New York, priority 2013, published 2021).

B1: NE-tPA: non-enzymatically active tPA, serine-478 replaced by alanine (Innovative Research) (protein)
chain: SYQVICRDEKTQMIYQQHQSWLRPVLRSNRVEYCWCNSGRAQCHSVPVKSCSEPRCFNGGTCQQALYFSDFVCQCPEGFAGKCCEIDTRATCYEDQGISYRGTWSTAESGAECTNWNSSALAQKPYSGRRPDAIRLGLGNHNYCRNPDRDSKPWCYVFKAGKYSSEFCSTPACSEGNSDCYFGNGSAYRGTHSLTESGASCLPWNSMILIGKVYTAQNPSAQALGLGKHNYCRNPDGDAKPWCHVLKNRRLTWEYCDVPSCSTCGLRQYSQPQFRIKGGLFADIASHPWQAAIFAKHRRSPGERFLCGGILISSCWILSAAHCFQERFPPHHLTVILGRTYRVVPGEEEQKFEVEKYIVHKEFDDDTYDNDIALLQLKSDSSRCAQESSVVRTVCLPPADLQLPDWTECELSGYGKHEALSPFYSERLKEAHVRLYPSSRCTAQHLLNRTVTDNMLCAGDTRSGGPQANLHDACQGDSGGPLVCLNDGRMTLVGIISWGLGCGQKDVPGVYTKVTNYLDWIRDNMRP
B2: RAP: inhibitor of LRP1 (protein, UniProt P30533 35-357, looked up)
Alpha-2-macroglobulin …: YSREKNQPKPSPKRESGEEFRMEKLNQLWEKAQRLHLPPVRLAELHADLKIQERDELAWKKLKLDGLDEDGEKEARLIRNLNVILAKYGLDGKKDARQVTSNSLSGTQEDGLDDPRLEKLWHKAKTSGKFSGEELDKLWREFLHHKEKVHEYNVLLETLSRTEEIHENVISPSDLSDIKGSVLHSRHTELKEKLRSINQGLDRLRRVSHQGYSTEAEFEEPRVIDLWDLAQSANLTDKELEAFREELKHFEAKIEKHNHYQKQLEIAHEKLRHAESVGDGERVSRSREKHALLEGRTKELGYTVKKHLQDLSGRISRARHNEL

What was measured:
[1] = test system: MMP-2, MMP-9, MMP-13; assay: MMP expression in PA treated HTM cells (Examples 17, 18); type: cell-based
[2] = test system: Mmp-2, Mmp-9, Mmp-13; assay: Mmp expression in TA and protein treated C57BL/6J eyes (Example 13); type: in vivo, mouse; details: vs BSA treated controls
[3] = test system: Mmp-2, Mmp-9, Mmp-13; assay: Mmp expression in protein treated PlatKO eyes (Example 14); type: in vivo, mouse; details: vs BSA treated eyes
Description: Tissue collection and confirmation of transgene expression: After outflow facility determination in adenovirus treated mice, mCherry expression in the TM was determined in all AdPLAT and AdPLATNE injected eyes. The eyes were dissected on ice to isolate a rim of tissue containing the TM by removing most of the iris and ciliary body. […] After observation, dissected rims were immediately immersed in RNA stabilizing agent (RNAlater, Invitrogen by ThermoFisher Scientific, Waltham, Mass., USA) and frozen. […]
RNA isolation and quantitative real time PCR: Tissue collected was pooled (four eyes) and homogenized in TRIzol reagent (Life Technologies, Carlsbad, Calif., USA). […] RNA concentration was determined with a Nanodrop ND-1000 Spectrophotometer (ThermoFisher Scientific, Waltham, Mass., USA). cDNA was synthesized by using High-Capacity cDNA Reverse Transcription Kit (Applied Biosystems, Waltham, Mass., USA) according to manufacturer's protocol. Quantitative real-time PCR (qRT-PCR) was performed by using Green-2-Go qPCR Mastermix-ROX (BioBasic, Amherst, N.Y., USA) on a QuantStudio 6 Flex thermal cycler (Applied Biosystems, Carlsbad, Calif., USA).
mRNA expression of sheep PLAT and mouse Mmp-2, Mmp-9, and Mmp-13 in angle ring tissues was determined. […] The relative fold change was calculated by using the ΔΔCt method. […]

[4] = test system: Mmp-2, Mmp-9, Mmp-13; assay: Mmp expression in Tg-MYOCY437H angle ring tissue (Example 19); type: in vivo, mouse; details: 2 days, vs BSA treated eyes
Description: Eyes were flash frozen in liquid nitrogen after outflow facility determination and subsequently dissected on ice to obtain the angle ring tissues containing the TM, as previously described (Kumar, Shah et al. 2013). Dissected TM tissues were immersed in RNAlater solution (Invitrogen, Waltham, Mass., USA) and then snap-frozen and stored at −80° C. until RNA extraction. Tissue collected was pooled (four eyes) and homogenized in TRIzol reagent for RNA isolation, per manufacturer's instructions (Life Technologies, Carlsbad, Calif., USA). RNA concentration was determined with a Nanodrop ND-1000 Spectrophotometer (Thermo Scientific, Wilmington, Del., USA). cDNA was synthesized by using High-Capacity cDNA Reverse Transcription Kit (Applied Biosystems, Waltham, Mass., USA) according to manufacturer's protocol. Quantitative real-time PCR (qRT-PCR) was performed by using Green-2-Go qPCR Mastermix-ROX (Bio Basic, Amherst, N.Y., USA) on a QuantStudio 6 Flex thermal cycler (Applied Biosystems, Carlsbad, Calif., USA). mRNA expression of Plat, Plau, Pai-1, Mmp-2, Mmp-9, and Mmp-13 in angle ring tissues was determined. Primers were designed by using Primer-BLAST (https://www.ncbi.nlm.nih.gov/tools/primer-blast/index.cgi?LINK_LOC=BlastHome; in the public domain); primer sequences are listed in Table 2. Primer specificity was confirmed by agarose gel electrophoresis and multiple-sized amplification products were absent on inspection of melting curves. Target mRNA expression values were normalized to the expression levels of Rps11 (ribosomal protein S11). The relative fold change was calculated by using the ΔΔCt method (Hu, Wang et al. 2015). Outliers identified via the Thompson Tau test were removed from analysis.

[5] = test system: C57BL/6J mice; assay: Outflow facility in TA and protein treated C57BL/6J mouse eyes (Example 13); type: in vivo; details: TA five days before intravitreal protein (2 μl, 5 μg/μl); two days after injection
Description: C57BL/6J mice were divided into two groups:
1) Animals receiving bilateral steroid (TA) injection subconjunctivally five days prior to protein injection (FIG. 10b) and 2) Animals not receiving subconjunctival steroids (FIG. 10c).
(§1) 1) Animals that received unilateral intravitreal injection with 2 μl of tPA (5 μg/μl, Actilyse; Boehringer Ingelheim, Ingelheim am Rhein, Germany) while the contralateral eye received 2 μl of BSA (5 μg/μl; Gold Biotechnology, St Louis, Mo., USA), and 2) Animals that received unilateral intravitreal injections with 2 μl of non-enzymatically active tPA (NE-tPA/S478A-tPA) (5 μg/μl; Innovative Research, Novi, Mich., USA) while the contralateral eye received 2 μl of BSA. Animals were euthanized two days after intravitreal injection.
(§2) Outflow facility determination: Mouse eyes were enucleated immediately after euthanasia. Outflow facility was determined using a constant pressure method, as previously described. Pressure was raised in steps of 4 cmH2O, from 8 cmH2O (5.88 mmHg) to 32 cmH2O (23.54 mmHg) by increasing the height of a column of fluid of BSS. […] Flow was constantly measured via a microfluidic flow sensor (0.07-1.5 uL/min, MFS1; Elveflow, Paris, France). […] Any eyes that developed visible leaks during outflow facility determination, or that had pressure-flow correlations with R^2<0.9, were excluded from analysis but were used for RNA quantification.

[6] = test system: Mmp-9KO mice; assay: Outflow facility in protein treated Mmp-9KO mouse eyes (Example 16); type: in vivo; details: intravitreal protein, p>0.05
Description: (§3) PlatKO and Mmp-9KO mice were also not given steroids prior to protein injections (FIG. 10c). Within each cohort, animals were divided into two groups:
as §1
as §2, with “BSS. Steady state was initially achieved after 10 minutes.” for “BSS.”

[7] = test system: Tg-MYOCY437H mice; assay: Outflow facility in Tg-MYOCY437H mouse eyes (Example 19); type: in vivo
Description: To investigate whether corticosteroids affect outflow facility in Tg-MYOCY437H mice, animals received bilateral injections (20 μl) with either triamcinolone acetonide (TA) (40 mg/ml, Kenalog-40; Bristol-Myers Squibb, NY, USA) suspension or phosphate-buffered saline (PBS) (Gibco, ThermoFisher Scientific, Waltham, Mass., USA) subconjunctivally using a 100 μL Hamilton syringe with a 26-gauge needle (Precision Glide, Becton Dickinson & CO, Franklin Lakes, N.J., USA). They were euthanized one week later for outflow facility measurement.
To investigate whether tPA can affect outflow facility in Tg-MYOCY437H mice, and determine whether tPA enzymatic action is necessary for such an effect, intravitreal injections were performed using a 10 μL Hamilton syringe with 36-gauge stainless steel needles (WPI Inc, Sarasota, Fla., USA). […] Animals were sacrificed either two or five days after intravitreal injections for outflow facility measurement. […]
Mouse eyes were enucleated immediately after euthanasia. Outflow facility was determined using a microfluidic flow sensor (0.07-1.5 uL/min, MFS1; Elveflow, Paris, France) and constant pressure method, as previously described (Hu, Barron et al. 2019). […] Any eyes that developed visible leaks or that had pressure-flow correlations with […] were excluded from analysis but were used for RNA quantification.

[8] = test system: PlatKO mice; assay: Outflow facility in protein treated PlatKO mouse eyes (Example 14); type: in vivo; details: intravitreal protein
Description: as §3, §1
as §2, with “BSS. Steady state was initially achieved after 10 minutes.” for “BSS.”

[9] = test system: Mmp-2, Mmp-9, Mmp-13, Plat; assay: Mmp and Plat expression in protein treated C57BL/6J eyes not exposed to steroids (Example 15); type: in vivo, mouse; details: C57BL/6J not exposed to steroids

Molecule | MMP-2 expression ([1]; PA treated HTM cells, between treatments) | expression (FIG. 17C, MMP-9) ([1]; PA treated HTM cells, vs PA+BSA) | Mmp-2, Mmp-9 and Mmp-13 expression [2] | Mmp-2 expression [3] | Mmp-9 expression [3] | Mmp-2 expression [4] | Mmp-9 expression [4] | Mmp-13 expression [4] | outflow facility, mean±standard deviation [5] | effect on outflow facility [6] | improvement of outflow facility [7] [%] | increase in outflow facility compared to BSA treated eyes [8] [%] | outflow facility, mean±standard deviation ([8]; no steroid, two days) | endogenous Plat expression [9] | gene expression changes in Mmp-2, Mmp-9 and Mmp-13 ([9]; vs BSA) | MMP-9 expression ([1]; added to PA+NE-tPA, vs PA+NE-tPA treated cells)
B1 | not significantly different | significant upregulation | significant upregulation | not significantly different | significant upregulation | no significant difference | significantly higher | significantly higher | 114±40.3×10^−5 μl/min/mmHg | did not increase | ~37 | 51 | 92±42×10^−5 μl/min/mmHg | did not cause significant changes | not significantly different | –
B2 | – | – | – | – | – | – | – | – | – | – | – | – | – | – | – | significantly lower
